{"source": "the DeepSol protein solubility set"}
{"test": "soluble on expression in E. coli; label from the status in PepcDB or PDB records"}
{"sequence": "MALSKTIATVTRRICERSAPTREIYLDRIAKAQANHPKRSFLGCANQAHGFAACGSIDKKRLKRNIVGNIGIITAYNDILSAHQPFESFPHLIKETARMFGGVAQVAGGVPAMCDGVTQGNTGMELSLFSRDVIAMATAIGLSHDMFDAALYLGVCDKIVPGLVIGALTFGHLPGIFVPAGPMTSGQGNDEKAKIRQLYAENKIDRQTLLESEARSYHGPGTCTFYGTANSNQVILEMMGLHMPGSSFINANTPLRDALTKEATKRVLEMIALGDSYSPIGLIVDERSFVNAVVGLNATGGSTNHAIHLIAMAAAAGILLTWHDIAEISSVVPLLARIYPNGLADINHFHAAGGMGFVIRELIEAGLVHEDVCTVFGKDLNAYAIEAKLCNDDNVVREPALNESANHKVLTGWRKPFQSDGGIRILLGDLGTAIMKVSSVKSEYWRIEAPVLVFNDQEELQEAFKAGVLNDKDFIAVIRYQGPKANGMPELHKLTTILGVLQDRGQKVALVTDGRMSGASGKIPAAIHVTPEALDDGPIARLQNGDVVCLDAHVGKLAILEDKVEFNARKITLPDLSKNEYGVGRELFRIFRHSVNRADQGASVLIA", "soluble on expression in E. coli": "not soluble"}
{"sequence": "MALVRFSPLYEFDRELGTLQRQMSRFLQPWPWTEAELKELSFAPAVEVKETDAAIELRVELPGIDPKDLDLQVTAEAVVLKGERRSEDRSEAEGVLRTEFRYGAFERVIPLPAQVKNTEAQADYQNGILVLTLPKRDEELHKVVKVDLGHLAAAPVAAEACERLEHHHHHH", "soluble on expression in E. coli": "soluble"}
{"sequence": "MAMKIPKSGYNRFMKEGAQHFKGTDEAVQRNIEACTELASQIRSAYGPNGMNKMVINHIEKLFVTNDAATILKELEIQHPAARIIIMATEMQEKQIGDNTNTVVILAAALLEHAANLIHMGMTPQEVAAGYEQAAEKALEILPTLVVKEATDMKNIEEVRQYIRSAITSKQYDNEDIIADLVAKACVTTCPANSFNFNVDNIRICKIIGSGVHTSTVMNGMVFKRGAEGEIREARDARIAVYTCPFDLTQTETKGTVLIENADELRNFSKGEEAEVEEQVKAIADNARSSILAKFWLMNFSKGEEAEVEEQQVKAIADNGVKVVVAAGKFGDMYLHFLNKYKIMAVRLTSKFDLRRLCRTVGAQPQARICAPAVNLLGHCDSVAVQEIGDENVVVFDKKSETGKVATIIIRGSSQSRIDDVERAVDDAVNTYKALTKDGKLLAGAGAVEIELAKEIESFGAKAPGLEQYAIKKFAHALETLPKAIAENAGMPTTETLTKLYAEHVAGKKNAGIDIWKRETMDAVVNNIFDLYAGKRLAIKLATDAASTILKVDQIIMSKQATGGPKPRGPKAQDEDDDGMA", "soluble on expression in E. coli": "not soluble"}
{"sequence": "MAMKQWIAALLLMLIPGVQAAKPQKVTLMVDDVPVAQVLQALAEQEKLNLVVSPDVSGTVSLHLTDVPWKQALQTVVKSAGLITRQEGNILSVHSIAWQNDNIARQEAEQARAQANLPLENRSITLQYADAGELAKAGEKLLSAKGSMTVDKRTNRLLLRDNKTALSALEQWVAQMDLPVGQVELSAHIVTINEKSLRELGVKWTLADAQHAGGVGQVTTLGSDLSVATATTHVGFNIGRINGRLLDLELSALEQKQQLDIIASPRLLASHLQPASIKQESEIPYQVSSGESGATSVEFKEAVLGMEVTPTVLQKGRIRLKLHISQNVPGQVLQQADGEVLAIDKQEIETQVEVKSGETLALGGIFTRKNKSGQDSVPLLGDIPWFGQLFRHDGKEDERRELVVFITPRLVSSELEHHHHHH", "soluble on expression in E. coli": "soluble"}
{"sequence": "MANAIRLPPEAYPMSIAAQKNDDDRQARALAALAEKPDGIVEAIAAKAEVAPAEILAILPQGAAVSAPADRFDAIWNEMRGWGEILMIVQTGDIVLEVPGHLPEGTESHGWFNIHGDSPIGGHIKKDNCAAITFVDRGFHGRRSCSVWFMNAAGGAMFKIFVRRDENKELLAGQLAKFEELRDGFRGLEHHHHHH", "soluble on expression in E. coli": "soluble"}
{"sequence": "MANLCKRVVDLEKYIVKEAPPTVYYIPDFISEAEEEFLLQQVYRAPKPKWTQLSGRRLQNWGGLPNPKGMLAEKLPDWLLEYTEKISALGAFAGKTANHVLVNEYKPGEGIMPHEDGPLYHPTVTTITVGSHTLLDFYRPVCQAEPDAPQTEESRYMLSLLVQRKSLLILQDDMYKCYLHGIRGVCEDVLSEHVVNISSTGAQVGDTLPRSTRVSLTIRHVPKIIRANLFLGKK", "soluble on expression in E. coli": "not soluble"}
{"sequence": "MANSLAIIADPKTGKTYKREIPSERMSSLIGRKIGEEVDGVFFDLVGYKMKITGGSSVDGFAMRPDLQTQGKKQILVKYTSGYRGKNGIRKRITARGSIIGSDITQINLKITQYGPTLEHHHHHH", "soluble on expression in E. coli": "not soluble"}
{"sequence": "MAPILSHSIPIPSSMQANWQQMLNLLAEVLKVSATLIMRLRHHDLDVFCTSVGSDNPYQVGMTERLGTGLYCETVVNTRQILLVSNADLDPLWKDNPDLELGMRAYCGVPLQWPNGELFGSLCVTDRQARQFLSTDQQLIKTFAESIEAQLKTLYQRETLLQMNQ", "soluble on expression in E. coli": "not soluble"}
{"sequence": "MAPKTIFITGANRGIGLGLVRELLKVPGVEALVAGARNIDGAKELQSLAKADARLHLIAVDVSNDGSLENSVKSVSGIVGDRGLNLLINNAGLIESYGTTSAPNRASVLHCIDVNAVSALLASQHFLPLLQKAASHVSGDSLTPDRAAIVNIGSDCASQALNLRGSGPSNSLLAYKMSKVAMLSFSRSMAADFKRLEIPVLITNIHPGWVQTDMGGSNAEISVDESVTKIVASIAKLNGGHQGGLFNRELEEMPL", "soluble on expression in E. coli": "not soluble"}
{"sequence": "MAPPKDPPVLRNLQATADLLDALQNDPSLLNDEEFIKRLSILRQKHEETTNFLAKKLGAPPLPTMMTSSEITQHRSSYKVTKSSSCHFQDEASPSDYQMPRHLDLKPRSSEVRVPVRAAPEPPREQSWSQTEYATLAHNQSHEALYEDPRHQVHATSSHQNPRHQSSRHHNIESTAPSQVSVTSSVQSVAALSGQNPRQQVHATPSHQIPRHQSSRTHQNSRQQVPSATSSTLQNPRHRTSSASRHHSTRNATSATVRQILANASTRHLSSAPHIATSVAMPSGLLLSSSNTKHVASSKSENPQFATSSHVVEESFLEDGMSTTREVPTIRDEVVAGDLKLSKNRSKSMHQLSKYTPQVTVPKPFQLSLRKSTGNTYAKKFMSGLITEKQKLEEDAKKALENTKFRAKPVPKSTYQPTNTFATEQKYVEAMRKKVAAKARRKFEVQNEMVRSKSEGNLASIKPLGYVPPSTYISPIPVKPNARSRSATMRATILIQEATTPKGIKSHRAQSNLTHHLRHGRCTMDASAVSLHRRTSPPDFEKIHAKITDNFRNTNSKPSTVPIPFKFASRSKSATSRHGNCQEQAPKPFKKSTENLPKTSKNRVPSTHATQLREELNRAKIELKKSEKSGKNGNFWAEDNKQRISSFLGARSKTEEDIAMRTKQKLQQQQETTQEYMRQLAEMKQRVLNGPLIMEKQTALAQEHRLKRKFEERMKSAKGRGIERVQSQEKQQSIGRRSSEVSGSGTFVVDKGYEESFESEDKSEKSGSSTPSESGSGSESENESRSSRSSKPKSSKSTSSKSSSSRSTSSSSEA", "soluble on expression in E. coli": "not soluble"}
{"sequence": "MAPRKRSHHGLGFLCCFGGSDIPEINLRDNHPLQFMEFSSPISNAEELNIRFAELVDELDLTDKNREAMFALPPEKKWQIYCSKKKVPSLTPLATSQGSWHGVALAALACSCIHLMFITCQPCSRCWRNNSE", "soluble on expression in E. coli": "soluble"}
{"sequence": "MAQNNENALPDITKSITLEAPIQKVWETVSTSEGIAKWFMPNDFQLKEGQEFHLQSPFGPSPCKVLAVQAPTELSFEWDTEGWVVTFQLEDLGEKTGFTLIHSGWKEPNEVIGKANEKSSVVRGKMDGGWTGIVNERLRKAVEE", "soluble on expression in E. coli": "not soluble"}
{"sequence": "MAQPQLYLPEPFKIAYRKVGQCRRFQQLKKKNGSFKRKGIERWHRAVSTNLLKQNVLVPKEESSSDSDMGFHESQQNQKSNLKTKVKTAFGRMLSYKYRSKPACASQEGSTDHKEALLSNTQSLLPRIVKEFSSPKLFTAKMRKLSENATIQLDVVEAETEEITQGNTLLRARRTTKRLSVTSLPSGLQKGPYSPKKRPHFPALKKKKRGMENILRKSDLTVGKLQMQVDDLIETVTDKSMKLLAQRHAELQQCEFLGDEILQSSKQFQRISKRTMRKYKLKNMTTKGPGDS", "soluble on expression in E. coli": "soluble"}
{"sequence": "MARESVKILQGKLDVESLISQLNAALSEEWLAYYQYWVGALVVEGAMRADVQGEFEEHAEEERRHAQLLADRIIELEGVPVLDPKKWFELARCKYDAPQGFDSVSLLKDNVASERCAILRYQEIADFTNGKDFTTCDIAKHILAEEEEHEQDLQDYLTDIARMKKSFLDK", "soluble on expression in E. coli": "not soluble"}
{"sequence": "MARFLLIIGCATLAALASCESKSGEETPQYWRAILGDICQLPSFPRATGDPTRYVECVRQSSFAADRKDLGIWLLRECLPGYEFVASARRCKTVRSVNKQQELCESANATEYNFCPTASAMQFLVEETREAPRQCACPNGEQNCVCPSPEILEPISAVKKVRRSAQQQPLRFSQYPSCPCPQNQPACTCSTNNQQNEQILVSISCCQQQETTTQAPVQMQPCQCTPTQIQQNCQTTTTQQQYCPQQSAPVVQPQPCPLVQGSGVQNAQYQGICSWMIDPLATDPQSRTHYLQCQPAPNNLFCGRWQRMPCAPGTVFDVQSQVCVWDTNSQPGTLPTPAPYVSTQAPQNAQCGCTGGVQIGSCNQNYQCPGQSVCQVGQNAGQQCMVCCYFRKKARRF", "soluble on expression in E. coli": "not soluble"}
{"sequence": "MARKTTVAKVGSKGPGSTKKTIQAVRPTVRTQGAVTRSQAALRGHMGITDSSTSTSSSRIPKEKLKKKASSRSRSRSRSKSTRRSRSKSTRSRSRSRSRSRSSTRGKKRAPKKAVTTKAARSISPVKVKKTEAIKSRGSSKTARRVSAAHK", "soluble on expression in E. coli": "not soluble"}
{"sequence": "MARVLVVDDAAFMRMLLKKILTQAGHEVVGEASNGKEAVEKYKQLKPDLVTMDIVMPEMDGITAVKEIMKIDPNAKIIMITAVGQEAKVMEALKSGAKGYIVKPFQAQKVIEEVNRVLSS", "soluble on expression in E. coli": "soluble"}
{"sequence": "MARYSLHAGHNSIVQGANYGNRKEHIMDRQVKDAVVAKLRALGHTVYDDTDEVGTTQAQNLNNIVSKTNSHDVDLVVSFHLNSYDTRANGVEVLYYDQQALSAKIAAQLSKDIGWSNRGAKERKDLYVLSNTKAPAILIELGFIDNEADMAKWNPDKIANSIVYALTGQSGGTTPPSKQNIIQSGAFSPYETPDVMGALTSLKMTANFILQSDGLTYFISEPTSDAQLKGMTDYLDRRGWWYEVK", "soluble on expression in E. coli": "not soluble"}
{"sequence": "MASAIGKNFQSGARECSTFEKIKTELSAAGLSSGAIDGILKIAATYKPKEGEKPDLAQAMVTIGKLFAELETFIKTQPESDQTIYHAIIEKKKAELVAHGIKF", "soluble on expression in E. coli": "not soluble"}
{"sequence": "MASEALHQVGDGEEAVLKKENFNMMNALDQLPKPFPNPKSMNRTVTTKGLPLASKGNLVNFLEDDTINLLKPLPVEDSDCSSDETSISAFSSTLLNPIKLAVTQPNSSFFAGMLEGELNKLSFSPMAKNAENEDLALGPCPCPSKSQMATRGLLDLDNPELETETSSTHSESSVVVDLPDTPFIFEHTVNNSTAVISWTYALGKQPVSFYQLLLQEVAKTQENELPEAKNRPWIFNKILGTTVKLMELKPNTCYCLSVRAANTAGVGKWCKPYKFATLATDFSSFPENYPIQITVRRKEPRQKIVSIGPEEMRRLEDLEYLFPC", "soluble on expression in E. coli": "soluble"}
{"sequence": "MASESSIDEKKKKAQVTQSNINKNTPQQLTDKDLFGNETTLAVSEEDIQAALDGDEFRVPLNSPVILVQSGNRAPETIMQEEMRKYYTVSTFSGIPDRQKPLTCNKNKDKNENEDVASAENMNWMQALRFVAAKGHQKAIIVYQDMLQTGKYDSALKSTVWSDYKNDKLTDAISLRYLVRFTLVDVATGEWATWSPVNYEYKVLPPLPDKNEASTTDMTEQQIMQLKQKTYKAMVKDLVNRYQLEHHHHHH", "soluble on expression in E. coli": "not soluble"}
{"sequence": "MASFITRAERSGNIFSRVTGLIRAGQLNWADRPLWYDVYVSSPPLTPPDWNVKLAKYDEPIRSIFYEEDVLRAKFYKTYRSTAGIQVDSSRTSVSQQFINEYKLVKSENAEATDDQLFEMTQKRLNENGIVLK", "soluble on expression in E. coli": "not soluble"}
